Laboratory results taken from paper PMC8622166 (2021).
Residue numbers refer to the chain shown, from its start. Names and notes keep the numbering of the source. Read-outs that look alike come from different tables or passages of the source.

B1: GDI1^ΔN15 (domain or fragment)
chain: AENEEDEHSVNYKPPAQKSIQEIQELDKDDESLRKYKEALLGRVAVSADPNVPNVVVTGLTLVCSSAPGPLELDLTGDLESFKKQSFVLKEGVEYRIKISFRVNREIVSGMKYIQHTYRKGVKIDKTDYMVGSYGPRAEEYEFLTPVEEAPKGMLARGSYSIKSRFTDDDKTDHLSWEWNLTIKKDWKD
B2: GDI1^E121K (natural protein)
chain: MAEQEPTAEQLAQIAAENEEDEHSVNYKPPAQKSIQEIQELDKDDESLRKYKEALLGRVAVSADPNVPNVVVTGLTLVCSSAPGPLELDLTGDLESFKKQSFVLKEGVEYRIKISFRVNRKIVSGMKYIQHTYRKGVKIDKTDYMVGSYGPRAEEYEFLTPVEEAPKGMLARGSYSIKSRFTDDDKTDHLSWEWNLTIKKDWKD
B3: GDI1 (RHOGDI1), wild type (natural protein)
chain: B2 chain with K121E
B4: GDI1^2E>2K (E163K and E164K) (natural protein)
chain: B2 chain with K121E, E163K, E164K
B5: GDI1^ΔC6 (domain or fragment)
chain: MAEQEPTAEQLAQIAAENEEDEHSVNYKPPAQKSIQEIQELDKDDESLRKYKEALLGRVAVSADPNVPNVVVTGLTLVCSSAPGPLELDLTGDLESFKKQSFVLKEGVEYRIKISFRVNREIVSGMKYIQHTYRKGVKIDKTDYMVGSYGPRAEEYEFLTPVEEAPKGMLARGSYSIKSRFTDDDKTDHLSWEWNLTI
B6: GDI1^ΔN25 (domain or fragment)
chain: NYKPPAQKSIQEIQELDKDDESLRKYKEALLGRVAVSADPNVPNVVVTGLTLVCSSAPGPLELDLTGDLESFKKQSFVLKEGVEYRIKISFRVNREIVSGMKYIQHTYRKGVKIDKTDYMVGSYGPRAEEYEFLTPVEEAPKGMLARGSYSIKSRFTDDDKTDHLSWEWNLTIKKDWKD

Key:
[1] = molecular target: T1, non-isoprenylated RAC1 full-length (RAC1^FL) (human, UniProt P63000 1-192); assay: stopped-flow
[2] = molecular target: T1, non-isoprenylated RAC1 full-length …; assay: FP; mdGDP-bound RAC1
[3] = molecular target: T1, non-isoprenylated RAC1 full-length …; assay: kinetic, koff/kon
[4] = molecular target: T1, non-isoprenylated RAC1 full-length …; assay: FP
[5] = molecular target: T1, non-isoprenylated RAC1 full-length …; assay: stopped-flow; remark: listed apart in the source
[6] = molecular target: T1, non-isoprenylated RAC1 full-length …; assay: kinetic, koff/kon; remark: listed apart in the source

Binder	koff [1] [s⁻¹]	Kd [2] [µM]	Kd [3] [µM]	Kd [4] [µM]	koff [5] [s⁻¹]	Kd [6] [µM]
B1	0.54	102	16.8	–	–	–
B2	–	14	–	–	–	–
B3	–	1.2	–	0.96	0.34	1.03
B4	–	117	–	–	–	–
B5	0.59	29	21.7	–	–	–
B6	–	174	–	–	–	–
